{
  "source": "paper doi:10.1101/2023.08.10.552896",
  "key": {"[1]": {"target": "Transthyretin, wild type, first purification protocol (TTR1st) (human (by the printed accession P02766)) (UniProt P02766)", "experiment": "SEC"}, "[2]": {"target": "Transthyretin, wild type, first purification protocol (TTR1st) (human (by the printed accession P02766)) (UniProt P02766)", "experiment": "SEC", "remark": "listed apart in the source"}},
  "note": "Read-outs that look alike come from different tables or passages of the source.",
  "data": [
    {"substance": "Transthyretin, wild type, first purification protocol (TTR1st) (from UniProt P02766 21-147) (enzyme)", "values": [
      {"measurement": "percent of the sample as oligomers (oTTR)", "setting": "[1]", "value": 7, "unit": "%"},
      {"measurement": "percent of the sample as tetramer", "setting": "[1]", "value": 93, "unit": "%"},
      {"measurement": "stoichiometry N", "setting": "[1]", "value": 4},
      {"measurement": "percent of the sample as oligomers (oTTR)", "setting": "[2]", "value": 4, "unit": "%"}
    ]}
  ]
}
